Assay results as given in patent publication US20170296650A1 (Novartis, published 2017).

Legend:
[1] = target: T1, hCMV gH + gL + UL128 + UL130 + UL131A (5-member complex; HEK293T co-transfectant) (hCMV, UniProt P12824 24-743; P16832 31-278; P16837 1-171; P16772 1-214); test: cell-based or functional assay
[2] = target: hCMV UL130 Q191K (virus selected with 4I22) (hCMV); test: cell-based or functional assay
[3] = target: hCMV UL130 W179R (virus selected with 4I22) (hCMV); test: cell-based or functional assay
[4] = target: T2, hCMV UL130 + UL131A (HEK293T co-transfectant) (hCMV, UniProt P16772 1-214); test: cell-based or functional assay
[5] = target: T2, hCMV UL130 + UL131A (HEK293T …); test: cell-based or functional assay; remark: listed apart in the source
[6] = target: T1, hCMV gH + gL + UL128 + UL130 + UL131A …; test: cell-based or functional assay; remark: listed apart in the source
[7] = target: T1, hCMV gH + gL + UL128 + UL130 + UL131A …; test: cell-based or functional assay; remark: listed apart in the source
[8] = target: soluble 5-member complex (gH, gL, UL128, UL130, UL131A) (hCMV, UniProt P12824 24-716; P16832 31-278; P16837 28-171; P16772 26-214); test: Biacore SPR, soluble 5-member complex
[9] = target: T1, hCMV gH + gL + UL128 + UL130 + UL131A …; test: cell competition; competitor 2F4-biotin
[10] = target: T1, hCMV gH + gL + UL128 + UL130 + UL131A …; test: cell competition; competitor 5A2-biotin
[11] = target: T1, hCMV gH + gL + UL128 + UL130 + UL131A …; test: cell competition; competitor 10F7-biotin
[12] = target: T1, hCMV gH + gL + UL128 + UL130 + UL131A …; test: cell competition; competitor 1F11-biotin
[13] = target: T1, hCMV gH + gL + UL128 + UL130 + UL131A …; test: cell competition; competitor 4I22-biotin
[14] = target: T1, hCMV gH + gL + UL128 + UL130 + UL131A …; test: cell competition; competitor 4N10-biotin
[15] = target: T1, hCMV gH + gL + UL128 + UL130 + UL131A …; test: cell competition; competitor 2C12-biotin
[16] = target: T1, hCMV gH + gL + UL128 + UL130 + UL131A …; test: cell competition; competitor 8I21-biotin
[17] = target: T1, hCMV gH + gL + UL128 + UL130 + UL131A …; test: cell competition; competitor 8J16-biotin

B1: 4I22 (antibody, human IgG1, V domains shown)
VH: QVQLVESGGGVVQPGRSLRLSCVASGFTFSSYAMHWVRQAPGKGLEWVAVISYDGDNKFYADSVKGRFRISRDTSKNTLYLEMNSLRAADTAIYYCAREELVGLMPPYYNYGLDVWGQGTTVTVSS
VL: QSVLTQPPSVSAAPGQKVTISCSGSNSNIGNNYVSWYQQLPGRAPKLLIYDNDHRPSGIPDRFSGSKSGTSATLVITGLQTGDEADYYCETWDTSLSAAVVFGGGTKLTVL
notes: fully human IgG1 with unaltered Fc; also called 4I22-biotin; 4122
- EC50 inhibition of cell-cell fusion [1]: 0.076 µg/mL
- fold decrease in susceptibility of escape virus [2]: > 50000 fold
- fold decrease in susceptibility of escape virus [3]: > 50000 fold
- 50% neutralization VR1814, ARPE [4]: < 0.01 µg/mL
- 50% neutralization VR1814, MRC-9 [4]: > 2 µg/mL
- 90% neutralization VR1814, ARPE [5]: 0.0015 µg/mL
- 90% neutralization VR1814, MRC-9 [5]: > 10 µg/mL
- neutralization of ARPE infection, isolate TM-20749 [6]: 0.01 µg/mL
- neutralization of ARPE infection, isolate TM-31354 [6]: 0.028 µg/mL
- neutralization of ARPE infection, isolate TM-E5271 [6]: 0.01 µg/mL
- neutralization of ARPE infection, isolate TM-E9361 [6]: 0.002 µg/mL
- neutralization of ARPE infection, isolate TM-E14953 [6]: 0.012 µg/mL
- neutralization of ARPE infection, isolate TM-E19664 [6]: 0.016 µg/mL
- neutralization of ARPE infection, isolate TM-E20744 [6]: 0.01 µg/mL
- neutralization of ARPE infection, isolate TM-E28175 [6]: 0.006 µg/mL
- neutralization of ARPE infection, isolate TM-E28257 [6]: 0.009 µg/mL
- EC90 neutralization HUVEC, isolate TM-20749 [7]: 0.011 µg/mL
- EC90 neutralization HUVEC, isolate TM-31354 [7]: 0.012 µg/mL
- EC90 neutralization HUVEC, isolate TM-E5271 [7]: 0.001 µg/mL
- EC90 neutralization HUVEC, isolate TM-E9361 [7]: 0.016 µg/mL
- EC90 neutralization HUVEC, isolate TM-E14953 [7]: 0.012 µg/mL
- EC90 neutralization HUVEC, isolate TM-E19664 [7]: 0.013 µg/mL
- EC90 neutralization HUVEC, isolate TM-E20744 [7]: 0.02 µg/mL
- EC90 neutralization HUVEC, isolate TM-E28175 [7]: 0.009 µg/mL
- EC90 neutralization HUVEC, isolate TM-E28257 [7]: 0.001 µg/mL
- Kd [8]: 310 pM
- Inhibition of binding (%) [9]: 100%
- Inhibition of binding (%) [10]: 0%
- Inhibition of binding (%) [11]: 100%
- Inhibition of binding (%) [12]: 100%
- Inhibition of binding (%) [13]: 100%
- Inhibition of binding (%) [14]: 0%
- Inhibition of binding (%) [15]: 0%
- Inhibition of binding (%) [16]: 0%
- Inhibition of binding (%) [17]: 0%
